Test results published in publication PMC5823669, “Multi-chaperone function modulation and association with cytoskeletal proteins are key features of the function of AIP in the pituitary gland” (Oncotarget, 2018).

T1: GST-tagged human AIP p.R304* (human, UniProt O00170 1-303)
T1 construct: AIP, human, UniProt O00170; natural nonsense variant c.910C>T, p.R304*: stop codon in place of R304, truncated protein ending at residue 303; The C-terminal limit 303 follows from the printed p.R304*; also called GST-AIP R304*; not shown: GST, N-terminal, kept
T1 sequence (looked up): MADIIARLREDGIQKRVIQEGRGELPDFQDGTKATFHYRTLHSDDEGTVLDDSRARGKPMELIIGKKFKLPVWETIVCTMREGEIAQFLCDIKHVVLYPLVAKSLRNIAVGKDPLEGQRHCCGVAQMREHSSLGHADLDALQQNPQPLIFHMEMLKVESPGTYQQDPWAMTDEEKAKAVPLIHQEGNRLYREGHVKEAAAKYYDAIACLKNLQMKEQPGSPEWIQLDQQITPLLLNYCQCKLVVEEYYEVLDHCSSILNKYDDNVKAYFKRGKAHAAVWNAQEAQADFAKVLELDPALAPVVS

T2: GST-tagged human AIP p.A299V (human, UniProt O00170 1-330, p.A299V)
T2 construct: AIP, human, UniProt O00170; also called GST-AIP A299V; not shown: GST, N-terminal, kept
T2 sequence (looked up): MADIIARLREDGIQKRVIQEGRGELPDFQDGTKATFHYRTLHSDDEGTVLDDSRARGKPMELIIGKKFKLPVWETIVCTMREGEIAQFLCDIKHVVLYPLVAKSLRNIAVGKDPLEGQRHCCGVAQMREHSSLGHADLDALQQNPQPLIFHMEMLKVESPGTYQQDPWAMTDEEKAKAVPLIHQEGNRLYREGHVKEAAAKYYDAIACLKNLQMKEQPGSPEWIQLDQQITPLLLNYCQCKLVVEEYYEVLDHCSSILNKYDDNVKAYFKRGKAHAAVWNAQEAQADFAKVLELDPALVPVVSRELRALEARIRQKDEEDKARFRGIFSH


Columns and labels:
[1] = target: T1, GST-tagged human AIP p.R304*; test: affinity purification with mass spectrometry; GST pull-down: 10 ug of purified GST-AIP bait (WT or variant) against 2 mg total protein of GH3 cell lysate; eluates of four experiments pooled; TMTsixplex labelling, Orbitrap MS; peptide intensities minus the GST control, variants given as fold of the WT experiment (WT = 1); conditions: one partner purified
[2] = target: T2, GST-tagged human AIP p.A299V; test: as above; conditions: one partner purified

Binder	normalized intensity value (fold of the WT AIP pull-down) [1]	normalized intensity value (fold of the WT AIP pull-down) [2]
TBB5_RAT Tubulin beta-5 chain (Tubb5) (natural protein, R. norvegicus (endogenous in GH3), UniProt P69897 1-444, looked up, Tubulin beta-5 chain, rat, UniProt P69897; also called tubulin beta chain; source: endogenous, GH3 cell lysate) MREIVHIQAGQCGNQIGAKFWEVISDEHGIDPTGTYHGDSDLQLDRISVYYNEATGGKYVPRAILVDLEPGTMDSVRSGPFGQIFRPDNFVFGQSGAGNNWAKGHYTEGAELVDSVLDVVRKEAESCDCLQGFQLTHSLGGGTGSGMGTLLISKIREEYPDRIMNTFSVVPSPKVSDTVVEPYNATLSVHQLVENTDETYCIDNEALYDICFRTLKLTTPTYGDLNHLVSATMSGVTTCLRFPGQLNADLRKLAVNMVPFPRLHFFMPGFAPLTSRGSQQYRALTVPELTQQVFDAKNMMAACDPRHGRYLTVAAVFRGRMSMKEVDEQMLNVQNKNSSYFVEWIPNNVKTAVCDIPPRGLKMAVTFIGNSTAIQELFKRISEQFTAMFRRKAFLHWYTGEGMDEMEFTEAESNMNDLVSEYQQYQDATAEEEEDFGEEAEEEA	0.2 fold of WT	
TBB2A_RAT Tubulin beta-2A chain (Tubb2a) (natural protein, R. norvegicus (endogenous in GH3), UniProt P85108 1-445, looked up, Tubulin beta-2A chain, rat, UniProt P85108; source: endogenous, GH3 cell lysate) MREIVHIQAGQCGNQIGAKFWEVISDEHGIDPTGSYHGDSDLQLERINVYYNEAAGNKYVPRAILVDLEPGTMDSVRSGPFGQIFRPDNFVFGQSGAGNNWAKGHYTEGAELVDSVLDVVRKESESCDCLQGFQLTHSLGGGTGSGMGTLLISKIREEYPDRIMNTFSVMPSPKVSDTVVEPYNATLSVHQLVENTDETYSIDNEALYDICFRTLKLTTPTYGDLNHLVSATMSGVTTCLRFPGQLNADLRKLAVNMVPFPRLHFFMPGFAPLTSRGSQQYRALTVPELTQQMFDSKNMMAACDPRHGRYLTVAAIFRGRMSMKEVDEQMLNVQNKNSSYFVEWIPNNVKTAVCDIPPRGLKMSATFIGNSTAIQELFKRISEQFTAMFRRKAFLHWYTGEGMDEMEFTEAESNMNDLVSEYQQYQDATADEQGEFEEEEGEDEA	0.3 fold of WT	
NDKA_RAT Nucleoside diphosphate kinase A (Nme1) (natural protein, R. norvegicus (endogenous in GH3), UniProt Q05982 1-152, looked up, Nucleoside diphosphate kinase A, rat, UniProt Q05982; also called NME/NM23 nucleoside diphosphate kinase 1; source: endogenous, GH3 cell lysate) MANSERTFIAIKPDGVQRGLVGEIIKRFEQKGFRLVGLKFIQASEDLLKEHYIDLKDRPFFSGLVKYMHSGPVVAMVWEGLNVVKTGRVMLGETNPADSKPGTIRGDFCIQVGRNIIHGSDSVESAEKEISLWFQPEELVDYKSCAQNWIYE		0.2 fold of WT
